Results published in patent US20230242645A1 (WUXI BIOLOGICS SHANGHAI, published 2023).

T1: mouse VEGF (WBP325-mPro1, Sino Biological, 50159-MNAB) (mouse, UniProt Q00731-2 27-190)
T1 construct: Bought protein
T1 sequence (looked up): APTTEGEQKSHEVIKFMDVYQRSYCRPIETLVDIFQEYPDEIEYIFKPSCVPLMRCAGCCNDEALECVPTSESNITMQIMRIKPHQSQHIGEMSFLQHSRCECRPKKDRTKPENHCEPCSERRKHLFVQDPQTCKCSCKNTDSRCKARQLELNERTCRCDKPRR


Assays:
[1] = biological target: T2, human PD-L1 extracellular domain, mouse Fc (PD-L1.ECD.mFc, W3153-hPro1.ECD.mFc) (human, UniProt Q9NZQ7 19-238); test: dual binding ELISA: plate coated with human VEGF, antibody titrated, then biotinylated PD-L1.ECD.mFc at 0.5 ug/ml
T2 construct: extracellular domain; also called WBP315-hPro1.ECD.mFc; antigen-2; not shown: mouse Fc tag at the C-terminus
T2 sequence (Q9NZQ7 19-238): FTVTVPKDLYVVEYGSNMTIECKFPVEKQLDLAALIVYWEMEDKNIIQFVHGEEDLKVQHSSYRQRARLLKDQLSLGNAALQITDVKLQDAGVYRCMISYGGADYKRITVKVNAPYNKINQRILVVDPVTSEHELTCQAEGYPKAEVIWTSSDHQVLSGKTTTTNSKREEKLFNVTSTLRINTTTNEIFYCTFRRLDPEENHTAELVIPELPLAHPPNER

[2] = biological target: T1, mouse VEGF (WBP325-mPro1, Sino …); test: ELISA, plate coated with mouse VEGF, detection with anti-human IgG Fc-HRP
[3] = biological target: T3, cynomolgus monkey PD-L1 on 293F cells (WBP315.293F.cPro1.2A) (cynomolgus monkey, UniProt G7PSE7 19-290); test: FACS on cynomolgus PD-L1 expressing 293F cells, FITC anti-human IgG
T3 construct: also called cynomolgus PD-L1; cyno PD-L1
T3 sequence (G7PSE7 entry or part of it limits assumed): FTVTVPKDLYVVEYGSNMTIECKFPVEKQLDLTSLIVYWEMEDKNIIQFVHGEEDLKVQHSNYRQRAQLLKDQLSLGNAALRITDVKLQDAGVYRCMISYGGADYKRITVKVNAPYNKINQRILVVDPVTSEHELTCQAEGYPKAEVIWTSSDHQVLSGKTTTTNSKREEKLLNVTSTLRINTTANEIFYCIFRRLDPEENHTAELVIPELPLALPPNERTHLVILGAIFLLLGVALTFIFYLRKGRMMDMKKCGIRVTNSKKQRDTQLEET
Protocol: (§1) Engineered cynomolgus monkey PD-L1 expressing cells (WBP315.293F.cPro1.2A) were seeded at 1×10⁵ cells/well in U-bottom 96-well plates. […] UIgG1 was added to the cells. Plates were incubated at 4° C. for 1 hour. After wash, FITC-labeled goat anti-human IgG (Jackson ImmunoResearch, 109-095-008) was added to each well and the plates were incubated at 4° C. for 1 hour. The binding of the antibodies onto the cells was tested by flow cytometry and the mean fluorescence intensity (MFI) was analyzed by FlowJo.

[4] = biological target: T4, human PD-L1 on CHO-K1 cells (WBP315.CHO-K1.hPro1.C11) (human, UniProt Q9NZQ7 19-290); test: FACS competition on human PD-L1 expressing CHO-K1 cells: antibody premixed with mouse Fc tagged human PD-1 at 5 ug/ml, PE anti-mouse IgG; blocked ligand human PD-1
T4 construct: whole, on cells; also called engineered human PD-L1 expressing cells
T4 sequence (Q9NZQ7 19-290): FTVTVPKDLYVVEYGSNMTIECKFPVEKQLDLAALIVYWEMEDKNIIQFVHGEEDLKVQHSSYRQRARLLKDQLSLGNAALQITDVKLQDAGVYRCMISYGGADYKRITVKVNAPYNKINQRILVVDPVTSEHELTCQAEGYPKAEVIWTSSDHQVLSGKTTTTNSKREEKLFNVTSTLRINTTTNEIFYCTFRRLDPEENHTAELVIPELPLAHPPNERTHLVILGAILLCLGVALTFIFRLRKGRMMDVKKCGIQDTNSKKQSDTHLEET
Protocol: (§2) Human PD-L1 expressing CHO-K1 cells (WBP315.CHO-K1.hPro1.C11) were seeded at 1×10⁵ cells/well in 96-well U-bottom plates. […] After washing, PE-labeled anti-mouse IgG was added and incubated with cells at 4° C. for 45 minutes. Cells were washed twice and MFI of the cells was measured by a flow cytometer and analyzed by FlowJo.

[5] = biological target: T5, human PD-L1 extracellular domain, his tag (W315-hPro1.ECD.his) (human, UniProt Q9NZQ7 19-238); test: SPR (Biacore T200), antibody captured on anti-human Fc, antigen as analyte, 25 °C
T5 construct: extracellular domain; Analyte in SPR; also called W315-hPro1.ECD.his (PD-L1); ECD of PD-L1; not shown: C-terminal his tag (6xhis)
T5 sequence (Q9NZQ7 19-238): as the sequence (Q9NZQ7 19-238) above
Protocol: Biacore T200, Series S Sensor Chip CM5, Amine Coupling Kit, and 10×HBS-EP were purchased from GE Healthcare. The antibody was captured onto the anti-human Fc IgG (Jackson, 109-005-098) surface immobilized on CM5-biosensor chip (GE Healthcare Inc.). The assay was performed at 25° C. with HBS-EP+ buffer (GE Healthcare Inc.) as running and dilution buffer. Serially diluted PD-L1 antigen or VEGF antigen (W315-hPro1.ECD.his or W325-hPro1.his) and running buffer were injected for an association phase and followed dissociation phase detection. Regeneration of the chip surface was reached by an injection of 10 mM Glycine, pH 1.5.
The on-rate constant (ka) and off-rate constant (kd) were also measured in the mean time. Final data of each interaction was deducted from reference channel and buffer channel data.

[6] = biological target: T6, mouse PD-L1 on 293F cells (WBP315.293F.mPro1.C1) (mouse, UniProt Q9EP73 19-290); test: FACS competition on mouse PD-L1 expressing cells: antibody premixed with mouse Fc tagged murine PD-1 at 5 ug/ml, PE anti-mouse IgG; blocked ligand mouse PD-1
T6 construct: whole, on cells; also called engineered mouse PD-L1 expressing cells
T6 sequence (Q9EP73 19-290): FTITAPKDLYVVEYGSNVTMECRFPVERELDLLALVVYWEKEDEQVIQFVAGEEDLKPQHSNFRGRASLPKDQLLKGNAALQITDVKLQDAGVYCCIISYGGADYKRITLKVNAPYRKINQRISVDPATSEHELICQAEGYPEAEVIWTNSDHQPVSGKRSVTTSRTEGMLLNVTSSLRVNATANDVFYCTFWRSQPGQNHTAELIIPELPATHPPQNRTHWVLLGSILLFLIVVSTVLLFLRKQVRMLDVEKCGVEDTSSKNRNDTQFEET
Protocol: as §2, with “Mouse” for “Human”, “(WBP315.293F.mPro1.C1)” for “(WBP315.CHO-K1.hPro1.C11)”, “1 hour.” for “45 minutes.”

[7] = biological target: T6, mouse PD-L1 on 293F cells …; test: FACS on mouse PD-L1 expressing 293F cells, FITC anti-human IgG
Protocol: Engineered mouse PD-L1 expressing cells (WBP315.293F.mPro1.C1) were seeded at 1×10⁵ cells/well in U-bottom 96-well plates. Serial dilutions of the different antibodies were added to the cells. Plates were incubated at 4° C. for 1 hour. After wash, FITC-labeled goat anti-human IgG (Jackson ImmunoResearch, 109-095-008) was added to each well and the plates were incubated at 4° C. for 1 hour. […] UIgG1 onto the cells was tested by flow cytometry and the mean fluorescence intensity (MFI) was analyzed by FlowJo.

[8] = biological target: T4, human PD-L1 on CHO-K1 cells …; test: FACS on human PD-L1 expressing CHO-K1 cells, FITC anti-human IgG
Protocol: as §1, with “human” for “cynomolgus monkey”, “(WBP315.CHO-K1.hPro1.C11)” for “(WBP315.293F.cPro1.2A)”

Binder	binding result [1]	binding result [2]	EC50 (read off the curve) [3]	IC50 (read off the curve) [4]	Kd [5]	koff [5]	kon [5]	IC50 (read off the curve) [6]	EC50 (read off the curve) [7]	EC50 (read off the curve) [8]
WBP325-BMK3.uIgG1 (Bevacizumab) (antibody, V domains shown, also called W325-BMK3.uIgG1; W325-BMK3) VH: EVQLVESGGGLVQPGGSLRLSCAASGYTFTNYGMNWVRQAPGKGLEWVGWINTYTGEPTYAADFKRRFTFSLDTSKSTAYLQMNSLRAEDTAVYYCAKYPHYYGSSHWYFDVWGQGTLVTVSS VL: DIQMTQSPSSLSASVGDRVTITCSASQDISNYLNWYQQKPGKAPKVLIYFTSSLHSGVPSRFSGSGSGTDFTLTISSLQPEDFATYYCQQYSTVPWTFGQGTKVEIK	no binding (tested: 100 nM)	–	–	–	–	–	–	–	–	–
W3156-AP3R2-1A3-z12-hIgG1 (Fc fusion, VHH in hIgG1 format as tested; The construction of the hIgG1 format is not described; also called anti-PD-L1 VHH antibody; parental anti-PD-L1 antibody; not shown: human IgG1 part (hIgG1) named in the label only) EVQLVESGGGLVQPGGSLRLSCAASGHFSNLAVNWFRQAPGKERELVAGILWSGGSTFYADSVKGRFTISRGNAENMLYLQMNSLRAEDTAVYYCNTGTNWGQGTLVTVSS	–	no binding (tested: 100 nM)	~2 nM	~0.04 nM	0.16 nM	0.000291 s⁻¹	1.82e+06 M⁻¹ s⁻¹	~2 nM	~2 nM	~0.05 nM
